{"source": "patent US20090311710A1", "about": "“MUTAGENESIS METHODS USING RIBAVIRIN AND/OR RNA REPLICASES” (priority 2002, published 2009)", "test_system": "TEM-1 Θ-lactamase (bla) gene expressed in bacteria", "experiment": "Cefotaxime resistance (MIC) conferred by mutant bla clones", "format": "cell-based", "settings": "bla clone expressed in bacteria; listed as wild-type bla gene", "text": "T7 RNA polymerase with the addition of 1000TM ribavirin 5′ triphosphate (dTRV) was used to transcribe (−) RNA from the bla gene θ-lactamase gene for antibiotic resistance) on plasmid pEGX205. The bla RNA was subsequently converted to cDNA using M-MuLV-reverse transcriptase, amplified with Pfu DNA polymerase, cut with appropriate restriction enzymes, and cloned into the plasmid pEGX212. Clones resistant to increased concentrations of cefotaxime were selected and sequenced (the minimum inhibitory concentration [MIC] for the wild-type bla gene was 0.02 ug/ml). […] When clone CefR E1 RNA was taken through a second round of T7 polymerase/dTRV mutagenesis, 3 clones containing 3 or more mutations were selected with one clone (F-E1-1) showing a 10,000-fold increase in cefotaxime resistance over the wild-type. No resistant mutants were isolated in the mutation/selection experiments that used T7 polymerase alone.", "data": [{"molecule": "Wild-type: wild-type TEM-1 β-lactamase (bla) gene for antibiotic resistance (protein, UniProt P62593 24-286, looked up) Beta-lactamase TEM: HPETLVKVKDAEDQLGARVGYIELDLNSGKILESFRPEERFPMMSTFKVLLCGAVLSRVDAGQEQLGRRIHYSQNDLVEYSPVTEKHLTDGMTVRELCSAAITMSDNTAANLLLTTIGGPKELTAFLHNMGDHVTRLDRWEPELNEAIPNDERDTTMPAAMATTLRKLLTGELLTLASRQQLIDWMEADKVAGPLLRSALPAGWFIADKSGAGERGSRGIIAALGPDGKPSRIVVIYTTGSQATMDERNRQIAEIGASLIKHW", "values": [{"measurement": "cefotaxime minimum inhibitory concentration (MIC)", "value": 0.02, "unit": "µg/mL"}]}]}
